Reference: paper doi:10.1101/2022.01.25.477770 (bioRxiv, 2022)

T1: SARS-CoV spike peptide #154, PELDSFKEELDKYFKNH (SARS-CoV residues 1125–1141); corresponding to SARS-CoV-2 … (SARS-CoV, residues 1125-1141)
T1 construct: also called 17-residue peptide
T1 chain: PELDSFKEELDKYFKNH


Tests used:
[1] = biological target: hCoV-HKU1 prefusion-stabilized spike (S2P) (hCoV-HKU1 isolate N1 (AAT98580.1), UniProt Q5MQD0, stabilised); test: ELISA; conditions: both partners purified
[2] = biological target: hCoV-OC43 prefusion-stabilized spike (S2P) (hCoV-OC43 (AAT84354.1), UniProt P36334, stabilised); test: ELISA; conditions: both partners purified
[3] = biological target: SARS-CoV-2 S-dTM (soluble spike protein residues 1–1206 of wildtype WA-1 strain) (SARS-CoV-2 WA-1, UniProt P0DTC2); test: ELISA; conditions: both partners purified
[4] = biological target: T2, SARS-CoV-2 S1-short (spike residues 1–670) (SARS-CoV-2, UniProt P0DTC2); test: ELISA; conditions: both partners purified
T2 construct: also called S1-short1

[5] = biological target: SARS-CoV-2 S1R (spike residues 1–537) (SARS-CoV-2, UniProt P0DTC2); test: ELISA; conditions: both partners purified
[6] = biological target: SARS-CoV-2 spike receptor-binding domain (RBD) (SARS-CoV-2, UniProt P0DTC2); test: ELISA; conditions: both partners purified
[7] = biological target: SARS-CoV-2 spike N-terminal domain (NTD) (SARS-CoV-2, WA-1 / Wuhan-Hu-1, UniProt P0DTC2); test: ELISA; conditions: both partners purified
[8] = biological target: T3, SARS-CoV-2 full-length spike, expressed on the cell surface (SARS-CoV-2 WA-1 (GenBank QHD43416.1), UniProt P0DTC2); test: flow cytometry on cells; conditions: one partner purified
T3 construct: also called SARS-CoV-2 spike; WA-1 spike; source: Expi-293 cells, transiently transfected, on the cell surface

[9] = biological target: T4, MERS-CoV full-length spike, expressed on the cell surface (MERS-CoV EMC/2012 (GenBank AFS88936), UniProt K0BRG7); test: flow cytometry on cells; conditions: one partner purified
T4 construct: also called MERS-CoV spike; MERS-CoV EMC

[10] = biological target: T5, hCoV-HKU1 full-length spike, expressed on the cell surface (hCoV-HKU1 isolate N1 (AAT98580.1), UniProt Q5MQD0); test: flow cytometry on cells; conditions: one partner purified
T5 construct: also called hCoV-HKU1 spike; source: Expi-293 cells, transiently transfected, on the cell surface

[11] = biological target: T6, hCoV-OC43 full-length spike, expressed on the cell surface (hCoV-OC43 (AAT84354.1), UniProt P36334); test: flow cytometry on cells; conditions: one partner purified
T6 construct: also called hCoV-OC43 spike; source: Expi-293 cells, transiently transfected, on the cell surface

[12] = biological target: T7, SARS-CoV-2 spike S2 subunit (SARS-CoV-2, UniProt P0DTC2); test: far-Western, overlay or dot blot; conditions: both partners purified
T7 construct: also called S2 domain

[13] = biological target: T1, SARS-CoV spike peptide #154, …; test: far-Western, overlay or dot blot; conditions: both partners purified
[14] = biological target: T7, SARS-CoV-2 spike S2 subunit; test: negative-stain EM; conditions: both partners purified

Binder | binding result [1] | binding result [2] | binding result [3] | binding result [4] | binding result [5] | binding result [6] | binding result [7] | binding result [8] | binding result [9] | binding result [10] | binding result [11] | binding result [12] | binding result [13] | binding result [14]
antibody WS6 (IgG) (antibody, V domains shown, also called mAb WS6) VH: EVQFQQSGTVLARPGASVKMSCKASGYTFTNYWIHWVKQRPGQGLEYIGGTYPGNGDTTYNQKFKGKAKVTAVTPTSTAYMDLSSLTNEDSAVYYCTRTGSYFDYWGQGTTLTVSS VL: QIVLTQSPAIMSASPGEKVTISCSATSSVSYIYWYQQRPGSSPKPWIYRTSNLASGVPVRFSGSGSGTSYSLTISNMEAEDAATYYCQQYQSYPPTFGAGTKLELK | binds | binds | binds | no binding | no binding | no binding | no binding | binds | binds | binds | binds | binds | binds | 
antigen-binding fragment (Fab) of WS6 (Fab, V domains shown, also called Fab WS6; WS6 Fab; source: generated from the mAb with the Pierce Fab kit) VH: EVQFQQSGTVLARPGASVKMSCKASGYTFTNYWIHWVKQRPGQGLEYIGGTYPGNGDTTYNQKFKGKAKVTAVTPTSTAYMDLSSLTNEDSAVYYCTRTGSYFDYWGQGTTLTVSS VL: QIVLTQSPAIMSASPGEKVTISCSATSSVSYIYWYQQRPGSSPKPWIYRTSNLASGVPVRFSGSGSGTSYSLTISNMEAEDAATYYCQQYQSYPPTFGAGTKLELK |  |  |  |  |  |  |  |  |  |  |  |  |  | binds
